Molecular target: T1, FLAG-tagged p61 BRAF(V600E/R509H) (Homo sapiens, UniProt P15056 1-168; P15056 381-766)
T1 construct: domain: exons 1-3;domain: exons 9-18; Expressed in 293H cells; also called dimerization-deficient mutant; not shown: FLAG tag
Assay: co-immunoprecipitation of Flag- and V5-tagged forms from 293H cell lysate (FIG. 2C)
Experimental: FIG. 2C. To compare levels of dimerization, 293H cells co-expressing FLAG tagged and c-terminal V5-tagged p61BRAF(V600E), full length BRAF(V600E) and the corresponding dimerization-deficient mutants p61 BRAF(V600E/R509H) and BRAF(V600E/R509H) were lysed followed by immunoprecipitation with FLAG antibody. Western blots with V5 or FLAG antibodies were performed as indicated.
The inventors of the present invention then determined whether deletion of exons 4-8 promoted dimerization of p61 BRAF(V600E). To determine levels of dimerization, the inventors ectopically co-expressed two constructs encoding the same protein; either p61 BRAF(V600E) or full-length BRAF(V600E) with different tags (Flag or V5).

B1: V5-tagged p61 BRAF(V600E/R509H) (enzyme, Homo sapiens, UniProt P15056 1-168, looked up)
chain: MAALSGGGGGGAEPGQALFNGDMEPEAGAGAGAAASSAADPAIPEEVWNIKQMIKLTQEHIEALLDKFGGEHNPPSIYLEAYEEYTSKLDALQQREQQLLESLGNGTDFSVSSSASMDTVTSSSSSSLSVLPSSLSVFQNPTDVARSNPKSPQKPIVRVFLPNKQRTVDLIRDQGFRGDGGSTTGLSATPPASLPGSLTNVKALQKSPGPQRERKSSSSSEDRNRMKTLGRRDSSDDWEIPDGQITVGQRIGSGSFGTVYKGKWHGDVAVKMLNVTAPTPQQLQAFKNEVGVLRKTHHVNILLFMGYSTKPQLAIVTQWCEGSSLYHHLHIIETKFEMIKLIDIARQTAQGMDYLHAKSIIHRDLKSNNIFLHEDLTVKIGDFGLATEKSRWSGSHQFEQLSGSILWMAPEVIRMQDKNPYSFQSDVYAFGIVLYELMTGQLPYSNINNRDQIIFMVGRGYLSPDLSKVRSNCPKAMKRLMAECLKKKRDERPLFPQILASIELLARSLPKIHRSASEPSLNRAGFQTEDFSLYACASPKTPIQAGGYGAFPVH
notes: domain: exons 1-3;domain: exons 9-18; Expressed in 293H cells; also called dimerization-deficient mutant; not shown: V5 tag at the C-terminus
Does B1 bind?
Result: no binding

— patent US20120301878A1 (Memorial Sloan Kettering, published 2012)
